The values that follow are results of earlier work, collected in paper PMC8895726.

By Kd is commonly meant the constant that tells how readily two partners part at equilibrium.

The data set concerns the target LAG-3:Fc (Mus musculus) (UniProt Q61790). Kind of data set: BLI. Background: BLI is a label-free optical method that tracks binding on a fibre tip over time.
Chain of UniProt Q61790 (Q61790 24-442): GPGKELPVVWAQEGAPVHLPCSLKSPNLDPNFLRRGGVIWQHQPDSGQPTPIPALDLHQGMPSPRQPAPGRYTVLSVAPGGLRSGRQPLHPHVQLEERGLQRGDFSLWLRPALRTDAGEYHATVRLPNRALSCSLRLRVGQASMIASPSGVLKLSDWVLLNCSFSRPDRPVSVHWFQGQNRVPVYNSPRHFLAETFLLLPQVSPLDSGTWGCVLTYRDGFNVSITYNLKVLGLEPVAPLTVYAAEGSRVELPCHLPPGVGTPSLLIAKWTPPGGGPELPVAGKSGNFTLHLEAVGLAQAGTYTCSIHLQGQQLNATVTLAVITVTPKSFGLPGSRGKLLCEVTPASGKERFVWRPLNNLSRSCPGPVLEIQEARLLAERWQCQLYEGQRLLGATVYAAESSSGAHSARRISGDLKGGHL

As to FGL1 (from UniProt Q71KU9), the Kd was 1.5 nM.
